Experimental data as given in article PMC9352680, “A comprehensive thermodynamic model for RNA binding by the Saccharomyces cerevisiae Pumilio protein PUF4”.

Target: T1, PUF4 RNA-binding domain (Saccharomyces cerevisiae, UniProt P25339 537-888)
T1 sequence: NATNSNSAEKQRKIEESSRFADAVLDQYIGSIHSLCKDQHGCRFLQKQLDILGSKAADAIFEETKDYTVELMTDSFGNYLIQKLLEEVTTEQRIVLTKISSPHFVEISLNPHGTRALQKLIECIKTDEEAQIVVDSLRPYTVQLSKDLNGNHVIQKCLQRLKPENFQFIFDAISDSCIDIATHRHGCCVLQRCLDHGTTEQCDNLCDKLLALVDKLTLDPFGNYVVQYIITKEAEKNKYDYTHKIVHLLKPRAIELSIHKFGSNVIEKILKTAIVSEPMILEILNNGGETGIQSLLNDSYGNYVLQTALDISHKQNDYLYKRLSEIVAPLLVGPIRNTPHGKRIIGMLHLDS
Experiment: Mg; RNA-MaP; 20 mM Na-HEPES pH 7.4, 30 mM KOAc, 0.75 mM MgCl2, 0.1% Tween-20, 5% glycerol, 0.1 mg/mL BSA, 2 mM DTT; 25 C; 0.0125-409.6 nM protein
Details: tags: N-His6-TEV cleaved; C-SNAP kept, Cy3B-labelled; label: tethered on chip by stalled RNA polymerase

Binder | Kd [nM]
UCUCUUACUGUAUAUUAACUCUCUU (ssRNA) [Id_ii_S1_P4E.2_K4.1_C4.2_[C-2A]_[T-1C]_H4.1_A4.1_F4.1_T4.2_[G10A]_[T11C]] | 1.47
UCUCUUAAUGUAUAUUACCUCUCUU (ssRNA) [Id_ii_S1_P4E.2_K4.1_C4.2_[C-2A]_[T-1A]_H4.1_A4.1_F4.1_T4.2_[G10C]_[T11C]] | 2.09
UCUCUUAAUGUAUAUUACUUCUCUU (ssRNA) [Id_ii_S1_P4E.2_K4.1_C4.2_[C-2A]_[T-1A]_H4.1_A4.1_F4.1_T4.2_[G10C]] | 1.68
UCUCUUAAUGUAUAUUAUCUCUCUU (ssRNA) [Id_ii_S1_P4E.2_K4.1_C4.2_[C-2A]_[T-1A]_H4.1_A4.1_F4.1_T4.2_[G10T]_[T11C]] | 2.38
UCUCUUAAUGUAUAUUAUUUCUCUU (ssRNA) [Id_ii_S1_P4E.2_K4.1_C4.2_[C-2A]_[T-1A]_H4.1_A4.1_F4.1_T4.2_[G10T]] | 1.61
UCUCUUAUUGUAUAUUACCUCUCUU (ssRNA) [Id_ii_S1_P4E.2_K4.1_C4.2_[C-2A]_H4.1_A4.1_F4.1_T4.2_[G10C]_[T11C]] | 0.788
UCUCUUAUUGUAUAUUACUUCUCUU (ssRNA) [Id_ii_S1_P4E.2_K4.1_C4.2_[C-2A]_H4.1_A4.1_F4.1_T4.2_[G10C]] | 1.16
UCUCUUAUUGUAUAUUAUGUCUCUU (ssRNA) [Id_ii_S1_P4E.2_K4.1_C4.2_[C-2A]_H4.1_A4.1_F4.1_T4.2_[G10T]_[T11G]] | 1.27
UCUCUUAUUGUAUAUUAUCUCUCUU (ssRNA) [Id_ii_S1_P4E.2_K4.1_C4.2_[C-2A]_H4.1_A4.1_F4.1_T4.2_[G10T]_[T11C]] | 0.846
UCUCUUAUUGUAUAUUAUAUCUCUU (ssRNA) [Id_ii_S1_P4E.2_K4.1_C4.2_[C-2A]_H4.1_A4.1_F4.1_T4.2_[G10T]_[T11A]] | 1.12
UCUCUUUGCAUUUUAUCUCUU (ssRNA) [Ib_S1_P4E.1_K4.1_C4.1_H4.1_[T3C]_A4.1_[A6T]_F4.1_T4.1] | 1640
UCUCUUAUUGUAUAUUAUUUCUCUU (ssRNA) [Id_ii_S1_P4E.2_K4.1_C4.2_[C-2A]_H4.1_A4.1_F4.1_T4.2_[G10T]] | 0.453
UCUCUUAUUGUAUAUUAACUCUCUU (ssRNA) [Id_ii_S1_P4E.2_K4.1_C4.2_[C-2A]_H4.1_A4.1_F4.1_T4.2_[G10A]_[T11C]] | 1.01
UCUCUUAUUGUAUAUUAAAUCUCUU (ssRNA) [Id_ii_S1_P4E.2_K4.1_C4.2_[C-2A]_H4.1_A4.1_F4.1_T4.2_[G10A]_[T11A]] | 0.655
UCUCUUAUUGUAUAUUAAUUCUCUU (ssRNA) [Id_ii_S1_P4E.2_K4.1_C4.2_[C-2A]_H4.1_A4.1_F4.1_T4.2_[G10A]] | 1.16
UCUCUUAUUGUAUAUUAGCUCUCUU (ssRNA) [Id_ii_S1_P4E.2_K4.1_C4.2_[C-2A]_H4.1_A4.1_F4.1_T4.2_[T11C]] | 0.714

Binder | Kd [nM]
UCUCUUAUUGUAUAUUAGUUCUCUU (ssRNA) [Id_ii_S1_P4E.2_K4.1_C4.2_[C-2A]_H4.1_A4.1_F4.1_T4.2] | 0.431
UCUCUUCGUGUAUAUUAUCUCUCUU (ssRNA) [Id_ii_S1_P4E.2_K4.1_C4.2_[T-1G]_H4.1_A4.1_F4.1_T4.2_[G10T]_[T11C]] | 0.874
UCUCUUCGUGUAUAUUAUUUCUCUU (ssRNA) [Id_ii_S1_P4E.2_K4.1_C4.2_[T-1G]_H4.1_A4.1_F4.1_T4.2_[G10T]] | 1.19
UCUCUUCGUGUAUAUUAAGUCUCUU (ssRNA) [Id_ii_S1_P4E.2_K4.1_C4.2_[T-1G]_H4.1_A4.1_F4.1_T4.2_[G10A]_[T11G]] | 3.06
UCUCUUCGUGUAUAUUAAUUCUCUU (ssRNA) [Id_ii_S1_P4E.2_K4.1_C4.2_[T-1G]_H4.1_A4.1_F4.1_T4.2_[G10A]] | 1.2
UCUCUUUGCAUAGUAUCUCUU (ssRNA) [Ib_S1_P4E.1_K4.1_C4.1_H4.1_[T3C]_A4.1_[T7G]_F4.1_T4.1] | 647
UCUCUUCGUGUAUAUUAGGUCUCUU (ssRNA) [Id_ii_S1_P4E.2_K4.1_C4.2_[T-1G]_H4.1_A4.1_F4.1_T4.2_[T11G]] | 0.943
UCUCUUCGUGUAUAUUAGUUCUCUU (ssRNA) [Id_ii_S1_P4E.2_K4.1_C4.2_[T-1G]_H4.1_A4.1_F4.1_T4.2] | 0.399
UCUCUUCCUGUAUAUUACUUCUCUU (ssRNA) [Id_ii_S1_P4E.2_K4.1_C4.2_[T-1C]_H4.1_A4.1_F4.1_T4.2_[G10C]] | 0.91
UCUCUUCCUGUAUAUUAUGUCUCUU (ssRNA) [Id_ii_S1_P4E.2_K4.1_C4.2_[T-1C]_H4.1_A4.1_F4.1_T4.2_[G10T]_[T11G]] | 1.01
UCUCUUCCUGUAUAUUAUCUCUCUU (ssRNA) [Id_ii_S1_P4E.2_K4.1_C4.2_[T-1C]_H4.1_A4.1_F4.1_T4.2_[G10T]_[T11C]] | 0.601
UCUCUUCCUGUAUAUUAUAUCUCUU (ssRNA) [Id_ii_S1_P4E.2_K4.1_C4.2_[T-1C]_H4.1_A4.1_F4.1_T4.2_[G10T]_[T11A]] | 0.96
UCUCUUCCUGUAUAUUAUUUCUCUU (ssRNA) [Id_ii_S1_P4E.2_K4.1_C4.2_[T-1C]_H4.1_A4.1_F4.1_T4.2_[G10T]] | 0.724
UCUCUUCCUGUAUAUUAAGUCUCUU (ssRNA) [Id_ii_S1_P4E.2_K4.1_C4.2_[T-1C]_H4.1_A4.1_F4.1_T4.2_[G10A]_[T11G]] | 1.9
UCUCUUCCUGUAUAUUAACUCUCUU (ssRNA) [Id_ii_S1_P4E.2_K4.1_C4.2_[T-1C]_H4.1_A4.1_F4.1_T4.2_[G10A]_[T11C]] | 0.991
